Our source for the binding result and Kd values is PMC4057782, “tRNA synthetase counteracts c-Myc to develop functional vasculature”.

Series [1] addresses T1, SerRS (Homo sapiens, UniProt P49591 1-514). Nature of the series: EMSA; minimal binding site; EMSA: 20 mM Tris-HCl pH 8.0, 60 mM KCl, 5 mM MgCl2, 0.1 mg/ml BSA, 10 ng/ul poly(dG-dC), 1 mM DTT, 30 min, room temperature; SPR: 10 mM HEPES pH 7.4, 150 mM NaCl, 0.005% P-20; footprint: 20 mM HEPES pH 7.9, 120 mM KCl, 8 mM MgCl2, 0.2 mM EDTA, 0.5 mM DTT, 0.2 mg/ml BSA, 10 ug/ml poly(dG-dC), 5% glycerol, room temperature. The settings on record: protein: recombinant; tags: C-terminal His tag (pET-20b); chain copies: 2; label: 5' 32P. Background: Mobility shift assays separate free from complexed probe on a gel.

The target in series [2] is T1, SerRS. Nature of the series: SPR; HBS-EP pH 7.4, 1:1 fit; EMSA: 20 mM Tris-HCl pH 8.0, 60 mM KCl, 5 mM MgCl2, 0.1 mg/ml BSA, 10 ng/ul poly(dG-dC), 1 mM DTT, 30 min, room temperature; SPR: 10 mM HEPES pH 7.4, 150 mM NaCl, 0.005% P-20; footprint: 20 mM HEPES pH 7.9, 120 mM KCl, 8 mM MgCl2, 0.2 mM EDTA, 0.5 mM DTT, 0.2 mg/ml BSA, 10 ug/ml poly(dG-dC), 5% glycerol, room temperature. The settings on record: protein: recombinant; tags: C-terminal His tag (pET-20b); chain copies: 2; label: biotin; 3' overhang 3 nt on strand 1. Background: In SPR one partner is held on a chip, and binding of the other changes the refractive index at the surface.

In series [3] the target is T1, SerRS. Nature of the series: EMSA; 5 mM Mg2+; EMSA: 20 mM Tris-HCl pH 8.0, 60 mM KCl, 5 mM MgCl2, 0.1 mg/ml BSA, 10 ng/ul poly(dG-dC), 1 mM DTT, 30 min, room temperature; SPR: 10 mM HEPES pH 7.4, 150 mM NaCl, 0.005% P-20; footprint: 20 mM HEPES pH 7.9, 120 mM KCl, 8 mM MgCl2, 0.2 mM EDTA, 0.5 mM DTT, 0.2 mg/ml BSA, 10 ug/ml poly(dG-dC), 5% glycerol, room temperature. The settings on record: protein: recombinant; tags: C-terminal His tag (pET-20b); chain copies: 2; label: 5' 32P.

For another series, the target named is MAX (Homo sapiens, UniProt P61244 1-160). Nature of the series: EMSA; MAX/MAX homodimer, not displaced by SerRS; EMSA: 20 mM Tris-HCl pH 8.0, 60 mM KCl, 5 mM MgCl2, 0.1 mg/ml BSA, 10 ng/ul poly(dG-dC), 1 mM DTT, 30 min, room temperature; SPR: 10 mM HEPES pH 7.4, 150 mM NaCl, 0.005% P-20; footprint: 20 mM HEPES pH 7.9, 120 mM KCl, 8 mM MgCl2, 0.2 mM EDTA, 0.5 mM DTT, 0.2 mg/ml BSA, 10 ug/ml poly(dG-dC), 5% glycerol, room temperature. The settings on record: protein: recombinant; tags: C-terminal His tag; chain copies: 2; label: 5' 32P.
MAX, sequence (P61244 whole entry): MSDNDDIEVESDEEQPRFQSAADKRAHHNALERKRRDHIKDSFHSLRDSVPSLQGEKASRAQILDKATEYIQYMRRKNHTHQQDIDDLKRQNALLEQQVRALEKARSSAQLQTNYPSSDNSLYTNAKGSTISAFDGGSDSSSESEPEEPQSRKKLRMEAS

Another series has as its target c-Myc;MAX (Homo sapiens;Homo sapiens, UniProt P01106;P61244 16-454;1-160, |). The experiment in a line: EMSA; competed off by SerRS at same concentrations; EMSA: 20 mM Tris-HCl pH 8.0, 60 mM KCl, 5 mM MgCl2, 0.1 mg/ml BSA, 10 ng/ul poly(dG-dC), 1 mM DTT, 30 min, room temperature; SPR: 10 mM HEPES pH 7.4, 150 mM NaCl, 0.005% P-20; footprint: 20 mM HEPES pH 7.9, 120 mM KCl, 8 mM MgCl2, 0.2 mM EDTA, 0.5 mM DTT, 0.2 mg/ml BSA, 10 ug/ml poly(dG-dC), 5% glycerol, room temperature. The settings on record: protein: recombinant;recombinant; tags: C-terminal His tag;C-terminal His tag; label: 5' 32P.

Series [4] has as its target T1, SerRS. The experiment in a line: EMSA; interaction not affected; EMSA: 20 mM Tris-HCl pH 8.0, 60 mM KCl, 5 mM MgCl2, 0.1 mg/ml BSA, 10 ng/ul poly(dG-dC), 1 mM DTT, 30 min, room temperature; SPR: 10 mM HEPES pH 7.4, 150 mM NaCl, 0.005% P-20; footprint: 20 mM HEPES pH 7.9, 120 mM KCl, 8 mM MgCl2, 0.2 mM EDTA, 0.5 mM DTT, 0.2 mg/ml BSA, 10 ug/ml poly(dG-dC), 5% glycerol, room temperature. The settings on record: protein: recombinant; tags: C-terminal His tag (pET-20b); chain copies: 2; label: 5' 32P.

T1 sequence (P49591 whole entry): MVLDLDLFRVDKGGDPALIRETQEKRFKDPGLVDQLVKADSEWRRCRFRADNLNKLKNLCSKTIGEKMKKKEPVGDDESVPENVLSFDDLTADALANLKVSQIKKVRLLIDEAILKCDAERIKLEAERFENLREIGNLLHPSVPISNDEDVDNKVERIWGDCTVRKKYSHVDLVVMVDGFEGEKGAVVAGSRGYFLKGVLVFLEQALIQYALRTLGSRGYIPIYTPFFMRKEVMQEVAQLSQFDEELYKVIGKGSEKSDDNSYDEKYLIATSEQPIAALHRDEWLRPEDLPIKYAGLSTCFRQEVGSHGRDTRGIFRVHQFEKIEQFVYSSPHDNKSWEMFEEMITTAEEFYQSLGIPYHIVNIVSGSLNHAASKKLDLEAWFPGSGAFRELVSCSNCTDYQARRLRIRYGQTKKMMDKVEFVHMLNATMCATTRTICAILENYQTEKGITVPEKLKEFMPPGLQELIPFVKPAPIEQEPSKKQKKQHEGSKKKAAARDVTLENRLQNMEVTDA
c-Myc;MAX, sequence (P01106 16-454, chain 1 of 2): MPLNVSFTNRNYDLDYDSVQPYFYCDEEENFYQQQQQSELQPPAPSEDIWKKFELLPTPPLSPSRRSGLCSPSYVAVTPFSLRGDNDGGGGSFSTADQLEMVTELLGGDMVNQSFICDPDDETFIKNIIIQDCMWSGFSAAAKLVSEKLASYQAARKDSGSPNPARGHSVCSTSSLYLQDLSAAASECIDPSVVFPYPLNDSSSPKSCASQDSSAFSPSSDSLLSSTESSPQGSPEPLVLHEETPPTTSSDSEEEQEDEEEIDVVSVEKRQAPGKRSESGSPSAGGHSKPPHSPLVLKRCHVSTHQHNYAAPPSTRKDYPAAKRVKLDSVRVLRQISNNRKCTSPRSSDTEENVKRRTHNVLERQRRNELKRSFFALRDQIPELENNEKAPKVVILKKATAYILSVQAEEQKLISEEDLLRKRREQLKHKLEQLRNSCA
c-Myc;MAX, sequence (P61244 whole entry, chain 2 of 2): as the sequence (P61244 whole entry) above

B1: VEGFA minimal SerRS site (-59 to -38) (dsDNA)
DNA 1: GGGCGGAGCCATGCGCCCCCCC
DNA 2: GGGGGGGCGCATGGCTCCGCCC
As for B1, the binding result with SerRS [1] was “binds”.

B2: VEGFA promoter SPR duplex (dsDNA)
DNA 1: GGCGGGGCGGAGCCATGCGCCCCCCCCTTTATA
DNA 2: AAAGGGGGGGGCGCATGGCTCCGCCCCGCC
modifications: 3' biotin on strand 1
For B2, the Kd (in general, a measure of binding affinity in units of concentration) in the series with SerRS [2] was determined as 265 nM.

B3: VEGFA promoter 27-bp (-62 to -36) (dsDNA)
DNA 1: GGCGGGGCGGAGCCATGCGCCCCCCCC
DNA 2: GGGGGGGGCGCATGGCTCCGCCCCGCC
For the molecule B3, the dissociation constant (Kd) in the series with SerRS [3] was found to be 212 nM. For the same molecule, the binding result with MAX and in the series with c-Myc;MAX was “binds” in each case.

B4: 27-bp E-box double mutant CTTACG (dsDNA)
DNA 1: GGCGGGGCGGAGCCTTACGCCCCCCCC
DNA 2: GGGGGGGGCGTAAGGCTCCGCCCCGCC
Turning to B4, the binding result with SerRS [4] was “binds”.
